Assay results reported in US6180103A, “Peptide p277 analogs, and pharmaceutical compositions comprising them for treatment or diagnosis of diabetes” (Yeda Research and Development Co., Ltd., priority 1994, dated 2001).

System: T cells of IDDM patients and healthy blood-donors
Experiment: Proliferative T cell response of IDDM patients and healthy blood donors
Type: cell-based, human
Settings: for Incidence of T-cell responses: positive = SI of 3 or greater

B1: hsp60: whole recombinant hsp60; human 60 kDa heat shock protein (protein, UniProt P10809 27-573, looked up)
60 kDa heat shock protein, …: AKDVKFGADARALMLQGVDLLADAVAVTMGPKGRTVIIEQSWGSPKVTKDGVTVAKSIDLKDKYKNIGAKLVQDVANNTNEEAGDGTTTATVLARSIAKEGFEKISKGANPVEIRRGVMLAVDAVIAELKKQSKPVTTPEEIAQVATISANGDKEIGNIISDAMKKVGRKGVITVKDGKTLNDELEIIEGMKFDRGYISPYFINTSKGQKCEFQDAYVLLSEKKISSIQSIVPALEIANAHRKPLVIIAEDVDGEALSTLVLNRLKVGLQVVAVKAPGFGDNRKNQLKDMAIATGGAVFGEEGLTLNLEDVQPHDLGKVGEVIVTKDDAMLLKGKGDKAQIEKRIQEIIEQLDVTTSEYEKEKLNERLAKLSDGVAVLKVGGTSDVEVNEKKDRVTDALNATRAAVEEGIVLGGGCALLRCIPALDSLTPANEDQKIGIEIIKRTLKIPAMTIAKNAGVEGSLIVEKIMQSSSEVGYDAMAGDFVNMVEKGIIDPTKVVRTALLDAAGVASLLTTAEVVVTEIPKEEKDPGMGAMGGMGGGMGGGMF
Incidence of T-cell responses (Healthy blood donors (n=14)): 21% | T-cell responses (stimulation index) (IDDM patient 1. patient eight, 3.5 months since diagnosis): + (SI values of 3 or greater were considered to be positive) | T-cell responses (stimulation index) (IDDM patient 3. H, 6 months since diagnosis): + (SI values of 3 or greater were considered to be positive) | T-cell responses (stimulation index) (IDDM patient 4. patient seven, 3 weeks since diagnosis): + (SI values of 3 or greater were considered to be positive) | T-cell responses (stimulation index) (IDDM patient 4. patient seven, 5 weeks since diagnosis): + (SI values of 3 or greater were considered to be positive) | T-cell responses (stimulation index) (IDDM patient 5. SD, 6 weeks since diagnosis): + (SI values of 3 or greater were considered to be positive) | T-cell responses (stimulation index) (IDDM patient 6. P, 4 weeks since diagnosis): - (SI values of 3 or greater were considered to be positive) | T-cell responses (stimulation index) (IDDM patient 7. G, 5 weeks since diagnosis): + (SI values of 3 or greater were considered to be positive) | T-cell responses (stimulation index) (IDDM patient 7. G, 7 weeks since diagnosis): + (SI values of 3 or greater were considered to be positive) | T-cell responses (stimulation index) (IDDM patient 9. patient two, 2 weeks since diagnosis): + (SI values of 3 or greater were considered to be positive) | T-cell responses (stimulation index) (IDDM patient 10. T, 4 weeks since diagnosis): + (SI values of 3 or greater were considered to be positive) | T-cell responses (stimulation index) (IDDM patient 12. patient nine, 6 weeks since diagnosis): - (SI values of 3 or greater were considered to be positive) | T-cell responses (stimulation index) (IDDM patient 15. patient five, 3 weeks since diagnosis): - (SI values of 3 or greater were considered to be positive) | T-cell responses (stimulation index) (IDDM patient 16. patient one, 2 months since diagnosis): + (SI values of 3 or greater were considered to be positive) | T-cell responses (stimulation index) (IDDM patient 17. patient six, 4 weeks since diagnosis): - (SI values of 3 or greater were considered to be positive) | T-cell responses (stimulation index) (IDDM patient 18. patient four, 4 weeks since diagnosis): + (SI values of 3 or greater were considered to be positive) | T-cell responses (stimulation index) (IDDM patient 19. A, 11.5 years since diagnosis): + (SI values of 3 or greater were considered to be positive) | T-cell responses (stimulation index) (IDDM patient 20. N, 7.5 years since diagnosis): + (SI values of 3 or greater were considered to be positive) | T-cell responses (stimulation index) (IDDM patient 21. A, 5.7 years since diagnosis): + (SI values of 3 or greater were considered to be positive) | Incidence of T-cell responses (IDDM patients (n=21)): 86% | T-cell responses (stimulation index) (healthy blood donor 1): - (SI values of 3 or greater were considered to be positive) | T-cell responses (stimulation index) (healthy blood donor 2): - (SI values of 3 or greater were considered to be positive) | T-cell responses (stimulation index) (healthy blood donor 4): - (SI values of 3 or greater were considered to be positive) | T-cell responses (stimulation index) (healthy blood donor 5): + (SI values of 3 or greater were considered to be positive) | T-cell responses (stimulation index) (healthy blood donor 6): - (SI values of 3 or greater were considered to be positive) | T-cell responses (stimulation index) (healthy blood donor 7): - (SI values of 3 or greater were considered to be positive) | T-cell responses (stimulation index) (healthy blood donor 8): - (SI values of 3 or greater were considered to be positive) | T-cell responses (stimulation index) (healthy blood donor 9): - (SI values of 3 or greater were considered to be positive) | T-cell responses (stimulation index) (healthy blood donor 10): - (SI values of 3 or greater were considered to be positive) | T-cell responses (stimulation index) (healthy blood donor 11): + (SI values of 3 or greater were considered to be positive) | T-cell responses (stimulation index) (healthy blood donor 12): - (SI values of 3 or greater were considered to be positive) | T-cell responses (stimulation index) (healthy blood donor 13): + (SI values of 3 or greater were considered to be positive) | T-cell responses (stimulation index) (healthy blood donor 14): - (SI values of 3 or greater were considered to be positive)
